Source: US20240252614A1 (Pfizer, published 2024)

Key:
PIV1044 = biological target: T1, PIV1044 (PIV1); assay: BLI, 56C stress;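 further: binding of thermally stressed PIV1 F mutant supernatant to mAb on AHC biosensors for 5 min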
T1 construct: Q92L
Protocol: (§1) All measurements were conducted at 30° C. temperature in 96-well black plates (Corning, Corning, NY) with a final volume of 240 μL per well at a constant agitation rate of 1000 RPM.
(§2) Conformation integrity of PIV1 F protein mutants were evaluated by a thermal stress experiment. Crude cell culture supernatants were normalized based on the results of the titer quantitation and then incubated for 1 hour at room temperature and two higher temperatures. For the initial testing of PIV1 mutants, the two temperatures were 50° C. and 53° C. […] Anti-Human IgG Fc Capture (AHC) biosensors were first equilibrated in PB for before being dipped into more PB to establish the initial baseline. […] The mAb-bound biosensors were then dipped into the thermal stresses cell culture supernatants for 5 minutes.

PIV1046 = biological target: T2, PIV1046 (PIV1); assay: BLI, 56C stress;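 further: binding of thermally stressed PIV1 F mutant supernatant to mAb on AHC biosensors for 5 min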
T2 construct: A466V, S473V
Protocol: as §1, §2

PIV1043 = biological target: T3, PIV1043 (PIV1); assay: BLI, 56C stress;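 further: binding of thermally stressed PIV1 F mutant supernatant to mAb on AHC biosensors for 5 min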
T3 construct: Q92A, G134A
Protocol: as §1, §2

PIV1042 = biological target: T4, PIV1042 (PIV1); assay: BLI, 56C stress;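 further: binding of thermally stressed PIV1 F mutant supernatant to mAb on AHC biosensors for 5 min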
T4 construct: Q92A
Protocol: as §1, §2

PIV1045 = biological target: T5, PIV1045 (PIV1); assay: BLI, 56C stress
T5 construct: Q92L, G134A
Protocol: as §1, §2

PIV1062 = biological target: T6, PIV1062 (PIV1); assay: BLI, 56C stress
T6 construct: F113G, F114S, A466L, S473L, A480L, Q92A, G134L
Protocol: (§3) The OCTET HTX (Sartorius, Gottingen, Germany) instrument was used to evaluate the expression and conformational integrity for each mutant. All measurements were conducted at 30° C. temperature in 96-well black plates (Corning, Corning, NY) with a final volume of 240 μL per well at a constant agitation rate of 1000 RPM.
as §2

PIV1057 = biological target: T7, PIV1057 (PIV1); assay: BLI, 56C stress
T7 construct: A466L, S473L, A480L, Q92A, G134A
Protocol: as §3, §2

PIV1064 = biological target: T8, PIV1064 (PIV1); assay: BLI, 56C stress
T8 construct: F113G, F114S, Q92C-G134C, A466I, S473I, A480L
Protocol: as §3, §2

PIV1047 = biological target: T9, PIV1047 (PIV1); assay: BLI, 56C stress
T9 construct: F113G, F114S, Q92C-G134C, A466L, S473L, A480L
Protocol: as §3, §2

PIV1066 = biological target: T10, PIV1066 (PIV1); assay: BLI, 56C stress
T10 construct: A466I, S473I, A480L, Q92L, G134A
Protocol: as §3, §2

[1] = biological target: T11, PIV1 F literature prefusion comparison (PIV1); assay: BLI, 56C stress
T11 construct: F113G, F114S, A466I, S473I (Stewart-Jones et al. 2018)
Protocol: as §3, §2

PIV1065 = biological target: T12, PIV1065 (PIV1); assay: BLI, 56C stress
T12 construct: F113G, F114S, Q92C-G134C, A466I, S473I
Protocol: as §3, §2

PIV1063 = biological target: T13, PIV1063 (PIV1); assay: BLI, 56C stress
T13 construct: A466L, S473L, A480L, Q92A, G134L
Protocol: as §3, §2

hMPV123 = biological target: T14, hMPV123 (hMPV B, UniProt Q6WB98 19-102); assay: BLI, no stress
T14 construct: A140C-S149C, G239A, T411C-Q434C

hMPV133 = biological target: T15, hMPV133 (hMPV B, UniProt Q6WB98 19-102); assay: BLI, no stress
T15 construct: T49I, L141C-A161C, S149T, G239A, T411C-Q434C, A459P

hMPV139 = biological target: T16, hMPV139 (hMPV B, UniProt Q6WB98 19-102); assay: BLI, no stress
T16 construct: T49I, L141C-A161C, T411C-Q434C

hMPV124 = biological target: T17, hMPV124 (hMPV B, UniProt Q6WB98 19-102); assay: BLI, no stress
T17 construct: L141C-A161C, T411C-Q434C, A459P

hMPV134 = biological target: T18, hMPV134 (hMPV B, UniProt Q6WB98 19-102); assay: BLI, no stress
T18 construct: T49I, L141C-A161C, S149T, G239A, T365I, T411C-Q434C, A459P

hMPV129 = biological target: T19, hMPV129 (hMPV B, UniProt Q6WB98 19-102); assay: BLI, no stress
T19 construct: T49I, A140C-S149C, G239A, T365I, T411C-Q434C, A459P

hMPV128 = biological target: T20, hMPV128 (hMPV B, UniProt Q6WB98 19-102); assay: BLI, no stress
T20 construct: T49I, A140C-S149C, G239A, T411C-Q434C, A459P

hMPV138 = biological target: T21, hMPV138 (hMPV B, UniProt Q6WB98 19-102); assay: BLI, no stress
T21 construct: T49I, A140C-S149C, A459P

hMPV121 = biological target: T22, hMPV121 (hMPV B, UniProt Q6WB98 19-102); assay: BLI, no stress
T22 construct: L141C-A161C, T411C-Q434C

hMPV117 = biological target: T23, hMPV117 (hMPV B, UniProt Q6WB98 19-102); assay: BLI, no stress
T23 construct: T150C-R156C, A459P

hMPV122 = biological target: T24, hMPV122 (hMPV B, UniProt Q6WB98 19-102); assay: BLI, no stress
T24 construct: A140C-S149C, T411C-Q434C, A459P

hMPV B F WT Control = hMPV B F WT Control (hMPV B, UniProt Q6WB98 19-102); assay: BLI, no stress
hMPV137 = biological target: T25, hMPV137 (hMPV B, UniProt Q6WB98 19-102); assay: BLI, no stress
T25 construct: T49I, A140C-S149C

hMPV120 = biological target: T26, hMPV120 (hMPV B, UniProt Q6WB98 19-102); assay: BLI, no stress
T26 construct: A140C-S149C, T411C-Q434C

hMPV126 = biological target: T27, hMPV126 (hMPV B, UniProt Q6WB98 19-102); assay: BLI, no stress
T27 construct: T49I, T150C-R156C, G239A, A459P

hMPV132 = biological target: T28, hMPV132 (hMPV B, UniProt Q6WB98 19-102); assay: BLI, no stress
T28 construct: L141C-A161C, S149T, G239A, T411C-Q434C, A459P

hMPV127 = biological target: T29, hMPV127 (hMPV B, UniProt Q6WB98 19-102); assay: BLI, no stress
T29 construct: A140C-S149C, G239A, T411C-Q434C, A459P

hMPV125 = biological target: T30, hMPV125 (hMPV B, UniProt Q6WB98 19-102); assay: BLI, no stress
T30 construct: L141C-A161C, G239A, T411C-Q434C

hMPV119 = biological target: T31, hMPV119 (hMPV B, UniProt Q6WB98 19-102); assay: BLI, no stress
T31 construct: T49I, T150C-R156C, A459P

B1: PIV1-8 mAb (antibody, V domains shown)
VH: QVQLVQSGAEVKKPGSSVKVSCEASGGTFSNYVISWVRQAPGQGLEWMGGIIPVFATAKYAQKFQGRVTIIADQSTNTAYLELSSLRSDDTAVYFCASVDSGGTWWDAFAIWGQGTMVTVSS
VL: QAVVTQPRSVSGSPGQAVTISCTGTSSDVGGYNYVSWYQHHPGKAPKLIIYDVTKRPSGVPDRFSGSKSGNTASLTISGLQTEYEADYYCCSYAGSYTLVFGGGTKLTVLG
notes: human IgG1; also called hPIV1-8 mAb; hPIV1-8
PIV1044
  Response Shift: -0.122 nm
PIV1046
  Response Shift: -0.091 nm
PIV1043
  Response Shift: -0.102 nm
PIV1042
  Response Shift: -0.103 nm
PIV1045
  Response Shift: -0.095 nm
PIV1062
  Response Shift: 0.623 nm
PIV1057
  Response Shift: 0.737 nm
PIV1064
  Response Shift: 0.702 nm
PIV1047
  Response Shift: 0.754 nm
PIV1066
  Response Shift: 0.582 nm
[1]
  Response Shift: 0.119 nm
PIV1065
  Response Shift: 0.677 nm
PIV1063
  Response Shift: -0.069 nm

B2: hMPV-2 mAb (antibody, V domains shown)
VH: QVQLQQSGAEVKKPGASVKVSCKASGYTFTSYGISWVRQAPGQGLEWMGWISGYNGNTNYAQTFQGTFTMTTDTSTSTAYMELRRLRSGDTAVYYCARDRYYASGSYNGMDVWGQGTTVTVSS
VL: QSALTQPPSASGAPGQRVTVSCSGSSSNVGSSSVYWYQQLPGTAPKLLIYRNNQRPSGVPDRFSGSKSGTSASLAISGLRSEDEADYYCAAWDDSLSGWVFGGGTKLTVLG
notes: human IgG1
hMPV123
  Response Shift: 0.619 nm
hMPV133
  Response Shift: 0.677 nm
hMPV139
  Response Shift: 0.699 nm
hMPV124
  Response Shift: 0.833 nm
hMPV134
  Response Shift: 0.718 nm
hMPV129
  Response Shift: 0.687 nm
hMPV128
  Response Shift: 0.777 nm
hMPV138
  Response Shift: 0.681 nm
hMPV121
  Response Shift: 0.842 nm
hMPV117
  Response Shift: 0.723 nm
hMPV122
  Response Shift: 0.73 nm
hMPV B F WT Control
  Response Shift: 0.82 nm
hMPV137
  Response Shift: 0.663 nm
hMPV120
  Response Shift: 0.593 nm
hMPV126
  Response Shift: 0.773 nm
hMPV132
  Response Shift: 0.704 nm
hMPV127
  Response Shift: 0.719 nm
hMPV125
  Response Shift: 0.847 nm
hMPV119
  Response Shift: 0.864 nm
